We go through 15 molecules from patent US20190060430A1 (published 2019).

Holding throughout (assay): cytokine release
For assay [1], the target named is T1, TPTE peptide on HLA-DRB1*13:01 (human).
T1 peptide: IFFDIKLLRNIPRWTHLLR

For assay [2], the target named is T2, NY-ESO-1 peptide on HLA-B*35:08 (human).
T2 peptide: LAMPFATPM

In assay [3] the target is T3, PLAC1 peptide on HLA-A*02:01 (human).
T3 peptide: CSIDWFMVTVHP

Assay [4] addresses T4, PLAC1 peptide on HLA-A*02:01 (human).
T4 peptide: SIDWFMVTV

For assay [5], the target named is T5, PLAC1 peptide on HLA-A*02:01 (human).
T5 peptide: VLCSIDWFM

The target of assay [6] is T6, TPTE peptide on HLA-DRB1*15:01 (human).
T6 peptide: DVVYIFFDIKLLRNI

The target in assay [7] is NY-ESO-1 peptide on HLA-DRB1*11:01 (human).
Assay [8] has as its target T7, hCMV pp65 peptide on HLA-DRB1*07:01 (human).
T7 peptide: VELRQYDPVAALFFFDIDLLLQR

Where a chain is given by its changes, count along the chain named.

B1: TCRCD4-TPT#87 (TCR, V domains shown)
Valpha: ELKVEQNPLFLSMQEGKNYTIYCNYSTTSDRLYWYRQDPGKSLESLFVLLSNGAVKQEGRLMASLDTKARLSTLHITAAVHDLSATYFCAVDMWNNNARLMFGDGTQLVVKP
Vbeta: KAGVTQTPRYLIKTRGQQVTLSCSPISGHRSVSWYQQTPGQGLQFLFEYFSETQRNKGNFPGRFSGRQFSNSRSEMNVSTLELGDSALYLCASSLAQSGANVLTFGAGSRLTVL
Turning to B1, in assay [1], the binding result is “recognises”.

B2: TCRCD8-NY#5 (TCR, V domains shown)
Valpha: ILNVEQSPQSLHVQEGDSTNFTCSFPSSNFYALHWYRWETAKSPEALFVMTLNGDEKKKGRISATLNTKEGYSYLYIKGSQPEDSATYLCASTSYSSASKIIFGSGTRLSIRP
Vbeta: GAGVSQSPRYKVTKRGQDVALRCDPISGHVSLYWYRQALGQGPEFLTYFNYEAQQDKSGLPNDRFSAERPEGSISTLTIQRTEQRDSAMYRCASSHSSGGAGELFFGEGSRLTVL
As for B2, the binding result in assay [2] is given as “recognises”.

B3: TCRCD8-mPL#20 (TCR, V domains shown)
Valpha: GDSVTQKEGLVTLTEGLPVMLNCTYQTIYSNAFLFWYVHYLNESPRLLLKSSTDNKRTEHQGFHATLHKSSSSFHLQKSSAQLSDSALYYCALNNVGDNSKLIWGLGTSLVVNP
Vbeta: NTKITQSPRYLILGRANKSLECEQHLGHNAMYWYKQSAEKPPELMFLYNLKQLIRNETVPSRFIPECPDSSKLLLHISAVDPEDSAVYFCASSQYGGANTEVFFGKGTRLTVV
Consider B3, for which the binding result in assay [3], in assay [4] and in assay [5] was “recognises” throughout.

B4: TCRCD8-NY#6 (TCR, V domains shown)
Valpha: SQQGEEDPQALSIQEGENATMNCSYKTSINNLQWYRQNSGRGLVHLILIRSNEREKHSGRLRVTLDTSKKSSSLLITASRAADTASYFCATDEYGNKLVFGAGTILRVKS
Vbeta: DAGVIQSPRHEVTEMGQEVTLRCKPISGHNSLFWYRQTMMRGLELLIYFNNNVPIDDSGMPEDRFSAKMPNASFSTLKIQPSEPRDSAVYFCASSYPGFNEQFFGPGTRLTVL
As to B4, the binding result in assay [2] is “recognises”.

B5: TCRCD4-TPT#55 (TCR, V domains shown)
Valpha: AQTVTQSQPEMSVQEAETVTLSCTYDTSESDYYLFWYKQPPSRQMILVIRQEAYKQQNATENRFSVNFQKAAKSFSLKISDSQLGDAAMYFCAYRSAVYNTDKLIFGTGTRLQVFP
Vbeta: KAGVTQTPRYLIKTRGQQVTLSCSPISGHRSVSWYQQTPGQGLQFLFEYFSETQRNKGNFPGRFSGRQFSNSRSEMNVSTLELGDSALYLCASSFSSYNEQFFGPGTRLTVL
On to B5, for which the binding result in assay [1] is given as “recognises”.

B6: TCRCD8-NY#8 (TCR, V domains shown)
Valpha: AQSVTQLDSQVPVFEEAPVELRCNYSSSVSVYLFWYVQYPNQGLQLLLKYLSGSTLVKGINGFEAEFNKSQTSFHLRKPSVHISDTAEYFCAVSDQGTGGFKTIFGAGTRLFVKA
Vbeta: DVKVTQSSRYLVKRTGEKVFLECVQDMDHENMFWYRQDPGLGLRLIYFSYDVKMKEKGDIPEGYSVSREKKERFSLILESASTNQTSMYLCASRGTVTSSLMNTEAFFGQGTRLTVV
On to B6, for which, in assay [2], the binding result was “recognises”.

B7: TCRCD4-TPT#67 (TCR, V domains shown)
Valpha: QKEVEQDPGPLSVPEGAIVSLNCTYSNSAFQYFMWYRQYSRKGPELLMYTYSSGNKEDGRFTAQVDKSSKYISLFIRDSQPSDSATYLCALYTGGFKTIFGAGTRLFVKA
Vbeta: KAGVTQTPRYLIKTRGQQVTLSCSPISGHRSVSWYQQTPGQGLQFLFEYFSETQRNKGNFPGRFSGRQFSNSRSEMNVSTLELGDSALYLCASSFMGTEQYFGPGTRLTVT
For B7, the binding result in assay [6] is listed as “recognises”.

B8: TCRCD4-TPT#48/2 (TCR, V domains shown)
Valpha: AQSVTQPDIHITVSEGASLELRCNYSYGATPYLFWYVQSPGQGLQLLLKYFSGDTLVQGIKGFEAEFKRSQSSFNLRKPSVHWSDAAEYFCAVGAYDMRFGAGTRLTVKP
Vbeta: DVKVTQSSRYLVKRTGEKVFLECVQDMDHENMFWYRQDPGLGLRLIYFSYDVKMKEKGDIPEGYSVSREKKERFSLILESASTNQTSMYLCASNRLNTEAFFGQGTRLTVV
In the case of B8, the binding result in assay [6] is recorded as “recognises”.

B9: TCRCD8-NY#15 (TCR, V domains shown)
Valpha: QKEVEQNSGPLSVPEGAIASLNCTYSDRGSQSFFWYRQYSGKSPELIMSIYSNGDKEDGRFTAQLNKASQYVSLLIRDSQPSDSATYLCAVPYYWSSGGSNYKLTFGKGTLLTVNP
Vbeta: DTEVTQTPKHLVMGMTNKKSLKCEQHMGHRAMYWYKQKAKKPPELMFVYSYEKLSINESVPSRFSPECPNSSLLNLHLHALQPEDSALYLCASSQSGLEETQYFGPGTRLLVL
For B9, the binding result in assay [2] was “recognises”.

B10: TCRCD4-NY#5 (TCR, V domains shown)
Valpha: AQSVTQLGSHVSVSEGALVLLRCNYSSSVPPYLFWYVQYPNQGLQLLLKYTTGATLVKGINGFEAEFKKSETSFHLTKPSAHMSDAAEYFCAVSRANFGNEKLTFGTGTRLTIIP
Vbeta: B9 Vbeta with S96D, G97P, L98R, E99G, E100G, T101P, Y103H, P106D, L111S, V112I
With B10, the binding result in assay [7] was “recognises”.

B11: TCRCD4-CMV#5 (TCR, V domains shown)
Valpha: GIQVEQSPPDLILQEGANSTLRCNFSDSVNNLQWFHQNPWGQLINLFYIPSGTKQNGRLSATTVATERYSLLYISSSQTTDSGVYFCAAGSNTGNQFYFGTGTSLTVIP
Vbeta: NAGVTQTPKFRVLKTGQSMTLLCAQDMNHEYMYWYRQDPGMGLRLIHYSVGEGTTAKGEVPDGYNVSRLKKQNFLLGLESAAPSQTSVYFCASSSRGYGTDTQYFGPGTRLTVL
As for B11, the binding result in assay [8] is “recognises”.

B12: TCRCD8-mPL#22 (TCR, V domains shown)
Valpha: GQQVQQSPASLVLQEGENAELQCNFSSTATRLQWFYQHPGGRLVSLFYNPSGTKHTGRLTSTTVTNERRSSLHISSSQTTDSGTYFCAAASNTNKVVFGTGTRLQVLP
Vbeta: GALVYQYPRRTICKSGTSMRMECQAVGFQATSVAWYRQSPQKTFELIALSTVNSAIKYEQNFTQEKFPISHPNLSFSSMTVLNAYLEDRGLYLCGVDRANYAEQFFGPGTRLTVL
Regarding B12, the binding result in assay [3], in assay [4] and in assay [5] was “recognises” each time.

B13: TCRCD4-NY#11 (TCR, V domains shown)
Valpha: AQSVSQHNHHVILSEAASLELGCNYSYGGTVNLFWYVQYPGQHLQLLLKYFSGDPLVKGIKGFEAEFIKSKFSFNLRKPSVQWSDTAEYFCAVNRRTGNQGGKLIFGQGTELSVKP
Vbeta: EAGVAQSPRYKIIEKRQSVAFWCNPISGHATLYWYQQILGQGPKLLIQFQNNGVVDDSQLPKDRFSAERLKGVDSTLKIQPAKLEDSAVYLCASSLGPYIDGAGCTFGSGTRLTVV
For the molecule B13, the binding result in assay [7] was “recognises”.

B14: TCRCD4-TPT#91 (TCR, V domains shown)
Valpha: EDQVTQSPEALRLQEGESSSLNCSYTVSGLRGLFWYRQDPGKGPEFLFTLYSAGEEKEKERLKATLTKKESFLHITAPKPEDSATYLCAVLGGSNYKLTFGKGTLLTVNP
Vbeta: NAGVTQTPKFQVLKTGQSMTLQCAQDMNHNSMYWYRQDPGMGLRLIYYSASEGTTDKGEVPNGYNVSRLNKREFSLRLESAAPSQTSVYFCAISRDSYEQYFGPGTRLTVT
With B14, the binding result in assay [6] is reported as “recognises”.

B15: TCRCD4-CMV#3 (TCR, V domains shown)
Valpha: AQSVTQLDSQVPVFEEAPVELRCNYSSSVSVYLFWYVQYPNQGLQLLLKYLSGSTLVKGINGFEAEFNKSQTSFHLRKPSVHISDTAEYFCAVSSYGSSNTGKLIFGQGTTLQVKP
Vbeta: NAGVTQTPKFQVLKTGQSMTLQCAQDMNHNSMYWYRQDPGMGLRLIYYSASEGTTDKGEVPNGYNVSRLNKREFSLRLESAAPSQTSVYFCASSTAGGRNYGYTFGSGTRLTVV
On to B15, for which the binding result in assay [8] is recorded as “recognises”.
